Measurements as given in article PMC4260453 (Molecular microbiology, 2011).
Each block holds one binder with its values, some of them ahead of it.

Biological target: T1, DnaE (Bacillus subtilis, UniProt O34623 1-1115)
T1 sequence: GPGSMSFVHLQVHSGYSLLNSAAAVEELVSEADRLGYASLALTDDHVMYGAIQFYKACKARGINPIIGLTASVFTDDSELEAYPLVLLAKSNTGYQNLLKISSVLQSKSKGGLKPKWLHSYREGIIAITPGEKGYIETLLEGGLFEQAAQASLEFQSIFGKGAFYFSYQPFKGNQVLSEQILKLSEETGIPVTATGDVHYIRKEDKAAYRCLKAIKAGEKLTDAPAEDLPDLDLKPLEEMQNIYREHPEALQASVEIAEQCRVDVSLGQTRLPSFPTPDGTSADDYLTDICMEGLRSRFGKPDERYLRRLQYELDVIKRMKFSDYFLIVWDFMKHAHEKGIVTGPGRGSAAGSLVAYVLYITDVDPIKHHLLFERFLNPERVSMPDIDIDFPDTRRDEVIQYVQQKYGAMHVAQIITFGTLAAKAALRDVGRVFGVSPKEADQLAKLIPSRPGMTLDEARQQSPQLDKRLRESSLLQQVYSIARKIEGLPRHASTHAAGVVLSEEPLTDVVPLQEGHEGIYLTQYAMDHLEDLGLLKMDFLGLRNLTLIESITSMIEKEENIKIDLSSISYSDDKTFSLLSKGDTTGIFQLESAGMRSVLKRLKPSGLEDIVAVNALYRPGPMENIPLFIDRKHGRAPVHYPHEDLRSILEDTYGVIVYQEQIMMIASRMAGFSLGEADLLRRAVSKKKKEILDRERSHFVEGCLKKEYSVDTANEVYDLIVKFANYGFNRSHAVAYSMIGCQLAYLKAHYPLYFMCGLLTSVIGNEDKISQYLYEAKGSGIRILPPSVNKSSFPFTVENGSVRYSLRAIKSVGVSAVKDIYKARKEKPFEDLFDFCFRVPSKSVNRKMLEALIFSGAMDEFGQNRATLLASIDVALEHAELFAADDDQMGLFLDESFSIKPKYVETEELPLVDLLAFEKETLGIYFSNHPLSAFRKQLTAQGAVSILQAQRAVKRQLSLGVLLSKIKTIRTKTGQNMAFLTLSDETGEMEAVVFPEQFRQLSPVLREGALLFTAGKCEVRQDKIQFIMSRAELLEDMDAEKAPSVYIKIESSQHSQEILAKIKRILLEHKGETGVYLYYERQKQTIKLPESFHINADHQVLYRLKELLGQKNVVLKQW
Assay: far-Western, overlay or dot blot

binding result: binds
B1: MutS (natural protein, Bacillus subtilis)
chain: GPGSMAGYTPMIQQYLKIKAEHQDAFLFFRLGDFYEMFFEDAKKASQELEITLTSRDGGAAEKIPMCGVPYHSASAYIEQLIKKGYKVAICEQTEDPKAAKGVVKREVVQLITPGTVMDGKGIHESENNFIASVSACSNGYGLALSDLTTGENLAVLIERLEDVISEIYSVGAREIVVSGSLDADTVAQLRERCGATISIEDGETDEHVTIIEHLNNEDITKTFLRLYTYLKRTQKRSLDHLQPVQVYELEEAMKIDLYSKRNLELTETIRSKNKKGSLLWLLDETKTAMGGRLLKQWIDRPLIRVNQIEERQEMVETLMSHFFEREDLRERLKEVYDLERLAGRVAFGNVNARDLIQLKESLKQVPGIKQLVASLAHDKAKERAKRIDPCGDVLELLEEALYENPPLSVKEGNLIKDGYNQKLDEYRDASRNGKDWIARLEQQEREYTGIRSLKVGFNKVFGYYIEVTKANLHLLEEGRYERKQTLTNAERYITPELKEKEALILEAENNICELEYELFTELREKVKQYIPRLQQLAKQMSELDALQCFATISENRHYTKPEFSKDEVEVIEGRHPVVEKVMDSQEYVPNNCMMGDNRQMLLITGPNMSGKSTYMRQIALISIMAQIGCFVPAKKAVLPIFDQIFTRIGAADDLISGQSTFMVEMLEAKNAIVNATKNSLILFDEIGRGTSTYDGMALAQAIIEYVHDHIGAKTLFSTHYHELTVLEDKLPQLKNVHVRAEEYNGTVVFLHQIKEGAADKSYGIHVAQLAELPGDLIARAQDILKELEHSGNKPEVPVQKPQVKEEPAQLSFFDEAEKPAETPKLSKKEKQVIDAFKSLNILDMTPLEAMNEMYKLQKKLH

binding result: binds
B2: His6-SSB (natural protein, Bacillus subtilis, UniProt P37455 1-172, looked up)
chain: MLNRVVLVGRLTKDPELRYTPNGAAVATFTLAVNRTFTNQSGEREADFINCVTWRRQAENVANFLKKGSLAGVDGRLQTRNYENQQGQRVFVTEVQAESVQFLEPKNGGGSGSGGYNEGNSGGGQYFGGGQNDNPFGGNQNNQRRNQGNSFNDDPFANDGKPIDISDDDLPF
